# Earlier results as cited in paper PMC9101112.
# Legend:
# Experiment in all cases: enzyme inhibition
# Ile-Val-Tyr-Pro-Trp = molecular target: Ile-Val-Tyr-Pro-Trp
# Trp-Val-Tyr-Pro-Trp = molecular target: Trp-Val-Tyr-Pro-Trp
# tynorphin = molecular target: tynorphin
# spinorphin (Bos taurus) = molecular target: spinorphin (Bos taurus)
# valorphin (Bos taurus) = molecular target: valorphin (Bos taurus)
substance,measurement,setting,value
DPP III (from UniProt O55096),Ki,Ile-Val-Tyr-Pro-Trp,100 nM
same,Ki,Trp-Val-Tyr-Pro-Trp,126 nM
same,Ki,tynorphin,2670 nM
DPP III (from UniProt Q9NY33),Ki,spinorphin (Bos taurus),2420 nM
same,Ki,valorphin (Bos taurus),49 nM
